Article PMC11914125

Legend:
[1] = molecular target: DNA polymerase beta (full-length) (Homo sapiens) (UniProt P06746); test: EMSA; conditions: EMSA: 20 nM NCP, 20 mM HEPES pH 7.5, 100 mM NaCl, 1 mM EDTA, 1 mM DTT, 0.1 mg/ml BSA, 20 min, 4 °C, 5% native PAGE, 0.2x TBE
[2] = molecular target: Pol beta lyase domain (8 kDa) (rat) (UniProt P06766); test: EMSA; conditions: EMSA: 20 nM NCP, 20 mM HEPES pH 7.5, 100 mM NaCl, 1 mM EDTA, 1 mM DTT, 0.1 mg/ml BSA, 20 min, 4 °C, 5% native PAGE, 0.2x TBE

Sequence | Kd ([1]; 5'-phosphate on strand 3) [nM] | also measured
ATCGGATGTATATATCTGACACGTGCCTGGAGACTAGGGAGTAATCCCCTTGGCGGTTAAAACGCGGGGGACAGCGCGTACGTGCGTTTAAGCGGTGCTAGAGCTGTCTACGACCAATTGAGCGGCCTCGGCACCGGGATTCTCGAT (double strand) [ND-NCP] |  | Kd [1]: 217 nM; Kd [2]: 451 nM
ATCGGATGTATATATCTGACACGTGCCTGGAGACTAGGGAGTAATCCCCTTGGCGGTTAAAACGCGGGGGACAGCGCGTACGTGCGTTTAAGCGGTGCTAGAGCTGTCTACGACCAATTGAGCGGCCTCGGCACCGGGATTCTCGAT / ATCGAGAATCCCGGTGCCGAGGCCGCTCAATTGGTCGTAGACAGCTCTAGCACCGCTTAAACGCACGTACGCGCTGTCCCCCGCGT / TTAACCGCCAAGGGGATTACTCCCTAGTCTCCAGGCACGTGTCAGATATATCCATCCGAT [Gap-NCP-1.5] | 149 | 
ATCGGATGTATATATCTGACACGTGCCTGGAGACTAGGGAGTAATCCCCTTGGCGGTTAAAACGCGGGGGACAGCGCGTACGTGCGTTTAAGCGGTGCTAGAGCTGTCTACGACCAATTGAGCGGCCTCGGCACCGGGATTCTCGAT / ATCGAGAATCCCGGTGCCGAGGCCGCTCAATTGGTCGTAGACAGCTCTAGCACCGCTTAAACGCACGTACGCGCTGTCCCCCGCGTTTTAACCGC / AAGGGGATTACTCCCTAGTCTCCAGGCACGTGTCAGATATATCCATCCGAT [Gap-NCP-2.5] | 118 | 
ATCGGATGTATATATCTGACACGTGCCTGGAGACTAGGGAGTAATCCCCTTGGCGGTTAAAACGCGGGGGACAGCGCGTACGTGCGTTTAAGCGGTGCTAGAGCTGTCTACGACCAATTGAGCGGCCTCGGCACCGGGATTCTCGAT / ATCGAGAATCCCGGTGCCGAGGCCGCTCAATTGGTCGTAGACAGCTCTAGCACCGCTTAAACGCACGTACGCGCTGTCCCCCGCGTTTTAACCGCCAAGGGGATTA / TCCCTAGTCTCCAGGCACGTGTCAGATATATCCATCCGAT [Gap-NCP-3.5] | 141 | 
ATCGGATGTATATATCTGACACGTGCCTGGAGACTAGGGAGTAATCCCCTTGGCGGTTAAAACGCGGGGGACAGCGCGTACGTGCGTTTAAGCGGTGCTAGAGCTGTCTACGACCAATTGAGCGGCCTCGGCACCGGGATTCTCGAT / ATCGAGAATCCCGGTGCCGAGGCCGCTCAATTGGTCGTAGACAGCTCTAGCACCGCTTAAACGCACGTACGCGCTGTCCCCCGCGTTTTAACCGCCAAGGGGATTACTCCCTA / TCTCCAGGCACGTGTCAGATATATCCATCCGAT [Gap-NCP-4.5+4] | 94 | 
ATCGGATGTATATATCTGACACGTGCCTGGAGACTAGGGAGTAATCCCCTTGGCGGTTAAAACGCGGGGGACAGCGCGTACGTGCGTTTAAGCGGTGCTAGAGCTGTCTACGACCAATTGAGCGGCCTCGGCACCGGGATTCTCGAT / ATCGAGAATCCCGGTGCCGAGGCCGCTCAATTGGTCGTAGACAGCTCTAGCACCGCTTAAACGCACGTACGCGCTGTCCCCCGCGTTTTAACCGCCAAGGGGATTACTCCCTAG / CTCCAGGCACGTGTCAGATATATCCATCCGAT [Gap-NCP-4.5+3] | 115 | 
ATCGGATGTATATATCTGACACGTGCCTGGAGACTAGGGAGTAATCCCCTTGGCGGTTAAAACGCGGGGGACAGCGCGTACGTGCGTTTAAGCGGTGCTAGAGCTGTCTACGACCAATTGAGCGGCCTCGGCACCGGGATTCTCGAT / ATCGAGAATCCCGGTGCCGAGGCCGCTCAATTGGTCGTAGACAGCTCTAGCACCGCTTAAACGCACGTACGCGCTGTCCCCCGCGTTTTAACCGCCAAGGGGATTACTCCCTAGT / TCCAGGCACGTGTCAGATATATCCATCCGAT [Gap-NCP-4.5+2] | 137 | 
ATCGGATGTATATATCTGACACGTGCCTGGAGACTAGGGAGTAATCCCCTTGGCGGTTAAAACGCGGGGGACAGCGCGTACGTGCGTTTAAGCGGTGCTAGAGCTGTCTACGACCAATTGAGCGGCCTCGGCACCGGGATTCTCGAT / ATCGAGAATCCCGGTGCCGAGGCCGCTCAATTGGTCGTAGACAGCTCTAGCACCGCTTAAACGCACGTACGCGCTGTCCCCCGCGTTTTAACCGCCAAGGGGATTACTCCCTAGTCT / CAGGCACGTGTCAGATATATACATCCGAT [Gap-NCP-4.5] | 98 | Kd ([2]; 5'-phosphate on strand 3): 125 nM
ATCGGATGTATATATCTGACACGTGCCTGGAGACTAGGGAGTAATCCCCTTGGCGGTTAAAACGCGGGGGACAGCGCGTACGTGCGTTTAAGCGGTGCTAGAGCTGTCTACGACCAATTGAGCGGCCTCGGCACCGGGATTCTCGAT / ATCGAGAATCCCGGTGCCGAGGCCGCTCAATTGGTCGTAGACAGCTCTAGCACCGCTTAAACGCACGTACGCGCTGTCCCCCGCGTTTTAACCGCCAAGGGGATTACTCCCTAGTCTCCAGGCACGT / TCAGATATATCCATCCGAT [Gap-NCP-5.5] | 51 | 
